Measured values as given in patent US20210102195A1.

Key:
[1] = molecular target: human CD3 epsilon (human) (UniProt P07766); assay: flow cytometry (MFI), titration 0.05-100 nM on Jurkat cells (2901)
[2] = molecular target: human CD3 epsilon (human) (UniProt P07766); assay: flow cytometry (MFI), titration 0.05-100 nM on CD8+ T cells (2903)
[3] = molecular target: human CD3 epsilon (human) (UniProt P07766); assay: flow cytometry (MFI), titration 0.05-100 nM; cells not named on the panel, the same value stands for CD8+ T-Cell in FIG. 29F
cyno CD3 epsilon (cyno) = cyno CD3 epsilon (cyno) (UniProt Q95LI5); assay: biosensor sensorgrams with fits, instrument not named in Example 14; antigen not printed on the panel: taken as cyno CD3 epsilon because 28G-28I and 28J-28L repeat the same three spots (57, 169, 205) and the text gives 67 nM (28G) for human and 107 nM (28J) for cyno
[4] = molecular target: human CD3 epsilon (human) (UniProt P07766); assay: biosensor sensorgrams with fits, instrument not named in Example 14; antigen not printed on the panel: taken as human CD3 epsilon because 28G-28I and 28J-28L repeat the same three spots (57, 169, 205) and the text gives 67 nM (28G) for human and 107 nM (28J) for cyno

Chain of human CD3 epsilon (human) (P07766 23-126 limits assumed): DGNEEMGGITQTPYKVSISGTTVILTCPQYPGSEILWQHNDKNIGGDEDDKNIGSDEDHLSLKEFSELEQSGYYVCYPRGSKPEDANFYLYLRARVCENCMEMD
Chain of cyno CD3 epsilon (cyno) (Q95LI5 22-117 limits assumed): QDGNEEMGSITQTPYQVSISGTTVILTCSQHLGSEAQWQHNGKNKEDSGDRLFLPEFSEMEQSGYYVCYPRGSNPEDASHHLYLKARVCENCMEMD

| Substance | EC50 [1] [nM] | EC50 [2] [nM] | EC50 [3] [nM] | Kd (cyno CD3 epsilon (cyno)) [nM] | Kd [4] [nM] |
| --- | --- | --- | --- | --- | --- |
| R&D MAB100 (antibody) | 0.537 | 3.05 | 3.05 |  |  |
| muSP34 (antibody) |  |  |  | 38 | < 0.0019 |
